Source: article PMC12120873, “Evening complex component ELF3 interacts with LUX proteins to repress soybean root nodulation”

Tests used:
[1] = molecular target: T1, LUX1-MBP (Glycine max, UniProt K7LTA3 1-306); assay: EMSA; LightShift Chemiluminescent EMSA Kit (Pierce) binding buffer, composition, salt and pH not stated; room temperature 20 min; 6% native PAGE; settings: protein: recombinant; tags: MBP; label: biotin; blunt
T1 sequence: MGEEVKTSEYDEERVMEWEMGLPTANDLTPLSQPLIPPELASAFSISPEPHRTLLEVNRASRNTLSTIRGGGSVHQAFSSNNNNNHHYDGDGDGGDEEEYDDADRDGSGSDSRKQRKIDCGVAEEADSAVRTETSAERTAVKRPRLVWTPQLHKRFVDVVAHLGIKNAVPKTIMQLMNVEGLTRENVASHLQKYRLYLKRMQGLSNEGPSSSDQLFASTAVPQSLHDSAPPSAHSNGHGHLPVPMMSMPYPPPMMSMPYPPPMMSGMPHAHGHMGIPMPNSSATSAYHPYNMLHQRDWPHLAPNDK

[2] = molecular target: T2, INN1-MBP (ELF3a) (Glycine max, UniProt K7KI62 1-714); assay: EMSA; INN1 alone; probe taken to be the ENOD40 probe of Table S1; LightShift Chemiluminescent EMSA Kit (Pierce) binding buffer, composition, salt and pH not stated; room temperature 20 min; 6% native PAGE; settings: protein: recombinant; tags: MBP; label: biotin; blunt
T2 sequence: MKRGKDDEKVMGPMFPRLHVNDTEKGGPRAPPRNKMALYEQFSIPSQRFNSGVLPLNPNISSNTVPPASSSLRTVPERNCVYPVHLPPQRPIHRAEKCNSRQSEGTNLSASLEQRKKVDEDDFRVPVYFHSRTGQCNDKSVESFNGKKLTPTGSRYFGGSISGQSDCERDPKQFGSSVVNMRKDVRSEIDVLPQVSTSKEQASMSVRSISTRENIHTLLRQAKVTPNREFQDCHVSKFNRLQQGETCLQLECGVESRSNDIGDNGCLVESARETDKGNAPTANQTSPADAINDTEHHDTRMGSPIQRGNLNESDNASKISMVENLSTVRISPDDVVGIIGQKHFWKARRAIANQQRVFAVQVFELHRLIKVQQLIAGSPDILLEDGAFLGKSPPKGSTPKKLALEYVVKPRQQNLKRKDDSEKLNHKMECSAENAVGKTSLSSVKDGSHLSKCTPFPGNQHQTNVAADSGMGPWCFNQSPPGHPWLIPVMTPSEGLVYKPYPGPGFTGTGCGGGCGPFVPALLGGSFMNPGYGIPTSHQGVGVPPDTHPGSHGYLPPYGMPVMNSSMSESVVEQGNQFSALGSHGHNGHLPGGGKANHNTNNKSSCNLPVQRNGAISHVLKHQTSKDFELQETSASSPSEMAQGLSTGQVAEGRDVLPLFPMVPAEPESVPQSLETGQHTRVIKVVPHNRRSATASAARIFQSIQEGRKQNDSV

B1: probe-ENOD40 (P1 region) (dsDNA)
DNA 1: TTGACATTCATATCCTTTGTATTTCAATTAGATTAGATATGTTCTACGGA
DNA 2: TCCGTAGAACATATCTAATCTAATTGAAATACAAAGGATATGAATGTCAA
B1: binds [1]; no binding [2].
